The source of these data is patent US20260078157A1.

Bounds are passed on as bounds.

For assay [1], the target named is surface of live cells. Put plainly: association and dissociation on the surface of live cells; method not stated.
Assay [2] deals with human KLB and FGFR1c overexpressed on HEK293 cells (human) (UniProt Q86Z14). Put plainly: cell-based or functional assay.
UniProt Q86Z14, sequence (Q86Z14 whole entry, chain 1 of 2): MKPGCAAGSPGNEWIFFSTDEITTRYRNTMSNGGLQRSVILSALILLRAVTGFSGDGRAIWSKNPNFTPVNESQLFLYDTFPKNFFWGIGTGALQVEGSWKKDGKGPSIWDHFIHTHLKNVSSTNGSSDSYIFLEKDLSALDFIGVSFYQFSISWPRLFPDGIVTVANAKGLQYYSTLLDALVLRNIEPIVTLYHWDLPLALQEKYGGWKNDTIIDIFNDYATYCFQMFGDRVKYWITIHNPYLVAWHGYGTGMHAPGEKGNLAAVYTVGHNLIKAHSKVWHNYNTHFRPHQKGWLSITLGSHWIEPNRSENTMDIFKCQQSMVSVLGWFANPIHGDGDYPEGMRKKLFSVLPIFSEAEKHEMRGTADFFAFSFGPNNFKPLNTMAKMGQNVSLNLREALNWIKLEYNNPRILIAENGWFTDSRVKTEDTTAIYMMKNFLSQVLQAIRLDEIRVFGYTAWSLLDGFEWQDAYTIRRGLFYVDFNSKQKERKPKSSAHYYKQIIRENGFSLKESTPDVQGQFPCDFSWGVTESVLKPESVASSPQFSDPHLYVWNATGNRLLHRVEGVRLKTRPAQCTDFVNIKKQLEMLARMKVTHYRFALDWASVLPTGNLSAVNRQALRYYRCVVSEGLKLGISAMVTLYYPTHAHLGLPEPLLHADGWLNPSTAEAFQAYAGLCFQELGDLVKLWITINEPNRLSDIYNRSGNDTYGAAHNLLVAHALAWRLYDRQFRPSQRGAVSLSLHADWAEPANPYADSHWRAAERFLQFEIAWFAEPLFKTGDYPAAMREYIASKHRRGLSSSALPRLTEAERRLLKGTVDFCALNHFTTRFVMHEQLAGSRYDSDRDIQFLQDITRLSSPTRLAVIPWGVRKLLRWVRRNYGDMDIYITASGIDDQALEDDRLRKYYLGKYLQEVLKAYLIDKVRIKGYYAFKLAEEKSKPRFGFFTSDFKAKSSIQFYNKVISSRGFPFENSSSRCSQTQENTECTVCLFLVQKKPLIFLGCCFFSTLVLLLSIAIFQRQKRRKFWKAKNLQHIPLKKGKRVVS
UniProt Q86Z14, sequence (P11362 22-822, chain 2 of 2, further chain): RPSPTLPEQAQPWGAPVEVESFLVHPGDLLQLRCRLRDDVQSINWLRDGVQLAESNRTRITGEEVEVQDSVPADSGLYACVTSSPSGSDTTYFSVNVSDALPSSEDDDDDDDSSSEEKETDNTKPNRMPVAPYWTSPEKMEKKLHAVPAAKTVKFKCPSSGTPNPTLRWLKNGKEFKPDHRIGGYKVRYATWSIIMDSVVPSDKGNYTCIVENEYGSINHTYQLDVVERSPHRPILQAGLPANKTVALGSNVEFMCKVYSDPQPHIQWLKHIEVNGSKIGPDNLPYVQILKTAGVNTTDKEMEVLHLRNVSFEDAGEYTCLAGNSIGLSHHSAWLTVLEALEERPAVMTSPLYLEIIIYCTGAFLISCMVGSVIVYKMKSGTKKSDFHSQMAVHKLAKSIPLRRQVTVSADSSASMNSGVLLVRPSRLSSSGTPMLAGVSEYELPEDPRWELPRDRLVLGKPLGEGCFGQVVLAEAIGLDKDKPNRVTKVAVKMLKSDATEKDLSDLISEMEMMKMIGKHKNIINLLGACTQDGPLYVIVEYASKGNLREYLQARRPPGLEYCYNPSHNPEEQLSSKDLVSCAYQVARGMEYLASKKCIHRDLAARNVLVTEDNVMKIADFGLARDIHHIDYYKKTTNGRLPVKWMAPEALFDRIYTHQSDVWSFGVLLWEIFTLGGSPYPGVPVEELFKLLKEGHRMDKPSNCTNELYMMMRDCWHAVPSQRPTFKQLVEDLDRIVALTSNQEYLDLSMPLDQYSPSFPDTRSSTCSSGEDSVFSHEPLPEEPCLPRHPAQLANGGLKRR

The substance Efruxifermin (EFX) (Fc fusion) gave a fold more stable interaction, compared to either free FGF21 or a single FGF21 domain linked to an Fc domain in assay [1] of over 100 fold. Moreover, the cell-based potency assay, Elk1 luciferase reporter in HEK293 cells overexpressing human KLB and FGFR1c; potency relative to ¾ EFX in assay [2] came to 2 fold.
